{"source": "patent US20090075929", "key": {"[1]": {"test_system": "GST-MADD70A (S70A)"}, "[2]": {"test_system": "GST-MADD1041A (T1041A)"}, "[3]": {"test_system": "GST-MADD173A (T173A)"}, "[4]": {"test_system": "GST-wtMADD (bacterially expressed, purified)"}}, "data": [{"substance": "recombinant Akt (rAkt; protein kinase B)", "values": [{"measurement": "in vitro phosphorylation (32P autoradiography)", "setting": "[1]", "result": "The phosphorylation levels of MADD mutants including MADD70A, MADD173A and MADD1041A were reduced or absent"}, {"measurement": "in vitro phosphorylation (32P autoradiography)", "setting": "[2]", "result": "The phosphorylation levels of MADD mutants including MADD70A, MADD173A and MADD1041A were reduced or absent"}, {"measurement": "in vitro phosphorylation (32P autoradiography)", "setting": "[3]", "result": "The phosphorylation levels of MADD mutants including MADD70A, MADD173A and MADD1041A were reduced or absent"}, {"measurement": "in vitro phosphorylation (32P autoradiography)", "setting": "[4]", "result": "recombinant wild-type MADD (wtMADD) was phosphorylated by Akt"}]}]}
